{"source": "paper PMC5007788", "about": "“Heat Shock Factor 1 Is a Substrate for p38 Mitogen-Activated Protein Kinases” (Molecular and Cellular Biology, 2016)", "key": {"[1]": {"target": "T1, Heat shock factor 1 (HSF1), endogenous in MDA-MB-231 cells (human (endogenous in MDA-MB-231)), Q00613", "T1 chain": "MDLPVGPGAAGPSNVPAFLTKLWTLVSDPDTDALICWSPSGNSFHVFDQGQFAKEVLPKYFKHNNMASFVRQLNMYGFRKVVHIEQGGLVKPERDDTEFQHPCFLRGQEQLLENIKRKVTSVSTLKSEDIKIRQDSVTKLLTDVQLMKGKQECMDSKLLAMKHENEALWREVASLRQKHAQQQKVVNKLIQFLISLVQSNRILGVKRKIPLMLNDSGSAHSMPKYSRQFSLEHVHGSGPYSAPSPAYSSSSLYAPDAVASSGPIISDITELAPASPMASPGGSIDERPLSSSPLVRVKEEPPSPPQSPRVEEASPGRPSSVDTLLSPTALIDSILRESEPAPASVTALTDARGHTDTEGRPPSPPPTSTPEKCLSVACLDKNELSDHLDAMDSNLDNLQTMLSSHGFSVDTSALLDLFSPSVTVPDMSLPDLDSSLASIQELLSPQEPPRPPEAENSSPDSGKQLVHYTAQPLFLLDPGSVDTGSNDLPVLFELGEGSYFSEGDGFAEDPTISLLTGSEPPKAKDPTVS", "test": "cross-linking; MDA-MB-231 cells treated with 20 uM PEITC for 3 h, fixed with 0.4% (wt/vol) paraformaldehyde in PBS, quenched with glycine; nuclear and cytoplasmic fractions; SDS-PAGE (10% gel), blot with anti-HSF1", "conditions": "remark: other sources report otherwise"}, "[2]": {"target": "the molecule itself", "test": "gel electrophoresis (NuPAGE NoVex Bis-Tris 10% gel); purified recombinant hexahistidine-tagged HSF1 (WT and S326A) run on NuPAGE; dimeric and trimeric species formed spontaneously beside the major band"}}, "note": "“And” between values parts separate entries of the source, which are not always exact repeats. Identical values can stand only once."}
{"binder": "Heat shock factor 1 (HSF1), endogenous in MDA-MB-231 cells, Q00613 1-529 (natural protein) MDLPVGPGAAGPSNVPAFLTKLWTLVSDPDTDALICWSPSGNSFHVFDQGQFAKEVLPKYFKHNNMASFVRQLNMYGFRKVVHIEQGGLVKPERDDTEFQHPCFLRGQEQLLENIKRKVTSVSTLKSEDIKIRQDSVTKLLTDVQLMKGKQECMDSKLLAMKHENEALWREVASLRQKHAQQQKVVNKLIQFLISLVQSNRILGVKRKIPLMLNDSGSAHSMPKYSRQFSLEHVHGSGPYSAPSPAYSSSSLYAPDAVASSGPIISDITELAPASPMASPGGSIDERPLSSSPLVRVKEEPPSPPQSPRVEEASPGRPSSVDTLLSPTALIDSILRESEPAPASVTALTDARGHTDTEGRPPSPPPTSTPEKCLSVACLDKNELSDHLDAMDSNLDNLQTMLSSHGFSVDTSALLDLFSPSVTVPDMSLPDLDSSLASIQELLSPQEPPRPPEAENSSPDSGKQLVHYTAQPLFLLDPGSVDTGSNDLPVLFELGEGSYFSEGDGFAEDPTISLLTGSEPPKAKDPTVS", "values": [{"measurement": "stoichiometry N", "setting": "[1]", "result": "2 and 3"}]}
{"binder": "Recombinant hexahistidine-tagged mutant S326A HSF1 (natural protein, human, UniProt Q00613 1-529, looked up, Heat shock factor 1, human, full-length cDNA from Addgene plasmid 32537 (P to L at position 448) in pet15b, with S326A made by site-directed mutagenesis; Made from the pet15b plasmid of m3; also called S326A mutant HSF1; HSF1 S326A; source: E. coli BL21(DE3)pLysS, purified (nickel agarose resin, dialysis)) MDLPVGPGAAGPSNVPAFLTKLWTLVSDPDTDALICWSPSGNSFHVFDQGQFAKEVLPKYFKHNNMASFVRQLNMYGFRKVVHIEQGGLVKPERDDTEFQHPCFLRGQEQLLENIKRKVTSVSTLKSEDIKIRQDSVTKLLTDVQLMKGKQECMDSKLLAMKHENEALWREVASLRQKHAQQQKVVNKLIQFLISLVQSNRILGVKRKIPLMLNDSGSAHSMPKYSRQFSLEHVHGSGPYSAPSPAYSSSSLYAPDAVASSGPIISDITELAPASPMASPGGSIDERPLSSSPLVRVKEEPPSPPQSPRVEEASPGRPSSVDTLLAPTALIDSILRESEPAPASVTALTDARGHTDTEGRPPSPPPTSTPEKCLSVACLDKNELSDHLDAMDSNLDNLQTMLSSHGFSVDTSALLDLFSPSVTVPDMSLPDLDSSLASIQELLSPQELPRPPEAENSSPDSGKQLVHYTAQPLFLLDPGSVDTGSNDLPVLFELGEGSYFSEGDGFAEDPTISLLTGSEPPKAKDPTVS", "values": [{"measurement": "stoichiometry N", "setting": "[2]", "result": "2 and 3"}]}
{"binder": "Recombinant hexahistidine-tagged HSF1 wild-type (natural protein, human, UniProt Q00613 1-529, looked up, subcloned into pet15b (NdeI, XhoI); The vector pet15b is named; also called His-HSF1; HSF1 WT; source: E. coli BL21(DE3)pLysS, purified (nickel agarose resin, dialysis)) MDLPVGPGAAGPSNVPAFLTKLWTLVSDPDTDALICWSPSGNSFHVFDQGQFAKEVLPKYFKHNNMASFVRQLNMYGFRKVVHIEQGGLVKPERDDTEFQHPCFLRGQEQLLENIKRKVTSVSTLKSEDIKIRQDSVTKLLTDVQLMKGKQECMDSKLLAMKHENEALWREVASLRQKHAQQQKVVNKLIQFLISLVQSNRILGVKRKIPLMLNDSGSAHSMPKYSRQFSLEHVHGSGPYSAPSPAYSSSSLYAPDAVASSGPIISDITELAPASPMASPGGSIDERPLSSSPLVRVKEEPPSPPQSPRVEEASPGRPSSVDTLLSPTALIDSILRESEPAPASVTALTDARGHTDTEGRPPSPPPTSTPEKCLSVACLDKNELSDHLDAMDSNLDNLQTMLSSHGFSVDTSALLDLFSPSVTVPDMSLPDLDSSLASIQELLSPQELPRPPEAENSSPDSGKQLVHYTAQPLFLLDPGSVDTGSNDLPVLFELGEGSYFSEGDGFAEDPTISLLTGSEPPKAKDPTVS", "values": [{"measurement": "stoichiometry N", "setting": "[2]", "result": "2 and 3"}]}
